Test results: article PMC2121072 (The Journal of Cell Biology, 1996)
“And” between values parts separate entries of the source, which are not always exact repeats. Identical values can stand only once. Like-named read-outs stand apart in the source and are kept apart here. Where no end group is shown, it is not given here. The star is where a group is joined. Biotin = O=C1N[C@H]2[C@H](CS[C@H]2CCCCC(=O)*)N1

B1: PDZ3 (A) domain of hDlg (domain or fragment, human, UniProt Q12959 457-558, looked up)
chain: DDEITREPRKVVLHRGSTGLGFNIVGGEDGEGIFISFILAGGPADLSGELRKGDRIISVNSVDLRAASHEQAAAALKNAGQAVTIVAQYRPEEYSRFEAKIH

Legend:
[1] = target: T1, GST-PDZ1+2+3 fusion protein of hDlg (human, UniProt Q12959 201-584); assay: SPR
[2] = target: PDZ1+2 (A) module of hDlg (human, UniProt Q12959 205-411); assay: SPR
[3] = target: T1, GST-PDZ1+2+3 fusion protein of hDlg; assay: SPR; remark: listed apart in the source
SEC = target: the molecule itself; assay: SEC

Chain of PDZ1+2 (A) module of hDlg (Q12959 205-411): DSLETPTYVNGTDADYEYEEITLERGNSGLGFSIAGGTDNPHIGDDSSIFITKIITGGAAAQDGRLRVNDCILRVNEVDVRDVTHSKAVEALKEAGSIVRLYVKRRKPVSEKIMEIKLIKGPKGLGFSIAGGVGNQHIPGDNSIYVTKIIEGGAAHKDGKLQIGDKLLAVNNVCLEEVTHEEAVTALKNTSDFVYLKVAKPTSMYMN
T1 sequence (Q12959 201-584): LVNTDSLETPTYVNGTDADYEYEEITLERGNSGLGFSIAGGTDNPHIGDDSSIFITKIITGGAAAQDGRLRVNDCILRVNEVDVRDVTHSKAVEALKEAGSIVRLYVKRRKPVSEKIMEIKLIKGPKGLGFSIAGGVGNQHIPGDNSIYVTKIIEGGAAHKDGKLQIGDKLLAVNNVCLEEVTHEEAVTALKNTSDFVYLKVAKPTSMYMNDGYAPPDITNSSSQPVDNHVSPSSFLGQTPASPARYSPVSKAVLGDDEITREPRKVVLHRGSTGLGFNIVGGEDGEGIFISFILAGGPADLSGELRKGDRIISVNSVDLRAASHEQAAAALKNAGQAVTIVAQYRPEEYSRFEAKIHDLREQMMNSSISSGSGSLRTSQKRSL

Binder	Kd [1]	koff [1]	kon [1]	Kd [2]	koff [2]	kon [2]	Kd [3]	koff [3]	kon [3]	stoichiometry N (SEC)
Biotin-SGSGDKNNCSNAKAVETDV [biotinylated synthetic peptide of the COOH terminus of the Kv1.4 potassium channel]	11 nM	0.002 s⁻¹	180000 M⁻¹ s⁻¹	33 ± 5 nM	0.0149 s⁻¹ and 0.0135 s⁻¹	413000 M⁻¹ s⁻¹	160 nM	0.024 s⁻¹	150000 M⁻¹ s⁻¹	–
B1	–	–	–	–	–	–	–	–	–	2
